We go through two proteins from PMC10458328, “The “life-span” of lytic polysaccharide monooxygenases (LPMOs) correlates to the number of turnovers in the reductant peroxidase reaction” (The Journal of Biological Chemistry, 2023).

Substrate in data set [1]: O=C1O[C@H]([C@@H](O)CO)C(O)=C1O
Nature of the data set: purified protein. The class given is biochemical, Neurospora crassa. As to conditions: H2O2 co-substrate (true Km from kcat app vs [AscA]), 50 mM sodium acetate pH 5.0, 25 °C, no polysaccharide, ping-pong.

Substrate in data set [2]: O=C1O[C@H]([C@@H](O)CO)C(O)=C1O
Put plainly: purified protein. The class given is biochemical, Streptomyces coelicolor. As to conditions: H2O2 co-substrate (true Km from kcat app vs [AscA]), 50 mM sodium acetate pH 5.0, 25 °C, no polysaccharide, ping-pong.

B1: NcAA9C (Neurospora crassa OR74A) (protein)
chain: HTIFQKVSVNGADQGQLKGIRAPANNNPVTDVMSSDIICNAVTMKDSNVLTVPAGAKVGHFWGHEIGGAAGPNDADNPIAASHKGPIMVYLAKVDNAATTGTSGLKWFKVAEAGLSNGKWAVDDLIANNGWSYFDMPTCIAPGQYLMRAELIALHNAGSQAGAQFYIGCAQINVTGGGSASPSNTVSFPGAYSASDPGILINIYGGSGKTDNGGKPYQIPGPALFTCPAGGSGGSSPAPATTASTPKPTSASAPKPVSTTASTPKPTNGSGSGTGAAHSTKCGGSKPAATTKASNPQPTNGGNSAVRAAALYGQCGGKGWTGPTSCASGTCKFSNDWYSQCLP
notes: N-terminal His not methylated; copper-saturated; eps280 46,910
For orientation: Km means the substrate concentration at which the rate is half of its maximum. For orientation: kcat means the number of substrate molecules converted per active site and unit of time at saturation. What is called kcat/Km is the second-order rate constant that governs catalysis at low substrate concentration. Regarding B1, in data set [1], the Km came to 145 ± 4 µM, the kcat was determined as 5.3 ± 0.1 s⁻¹ and the kcat/Km was found to be 36000 ± 1000 M⁻¹ s⁻¹.

B2: ScAA10C (Streptomyces coelicolor A3(2)) (protein)
chain: HGVAMMPGSRTYLCQLDAKTGTGALDPTNPACQAALDQSGATALYNWFAVLDSNAGGRGAGYVPDGTLCSAGDRSPYDFSAYNAARSDWPRTHLTSGATIPVEYSNWAAHPGDFRVYLTKPGWSPTSELGWDDLELIQTVTNPPQQGSPGTDGGHYYWDLALPSGRSGDALIFMQWVRSDSQENFFSCSDVVFDGGNGEVTGIRGSGSTPDPDPTPTPTDPTTPPTHTGSCMAVYSVENSWSGGFQGSVEVMNHGTEPLNGWAVQWQPGGGTTLGGVWNGSLTSGSDGTVTVRNVDHNRVVPPDGSVTFGFTATSTGNDFPVDSIGCVAP
notes: copper-saturated; eps280 75,775; called ScAA10A by slip in places
For the protein B2, in data set [2], the Km is 25 ± 2 µM, the kcat is 0.64 ± 0.02 s⁻¹ and the kcat/Km amounted to 21000 ± 2000 M⁻¹ s⁻¹.
